In the RNAGym collection of RNA variant scans (doi:10.1073/pnas.2313332121):

B1: TPR t1 (parent)
chain: GACCAAUCUGCCCUCAGAGCUCGAGAACAUCUUCGGAUGCAGAGGAGGCAGGCUUCGGUGGCGCGAUAGCGCCAACGUCCUCAACCUCCAAUGCAUCCCACCACAUGAUGAUGCCUGAAGAGCCUUGGUUUUUUG

Variants of: B1
Assay: polymerase ribozyme fitness, log enrichment relative to wild type (log ratio); higher = more active; in vitro selection for triplet polymerase activity
Procedure, shortened: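 Fitness compares each genotype's enrichment to that of the wild type on a logarithmic scale, averaging replicates with inverse-variance weights. The logarithm is base 2. Enrichment came from Illumina sequencing of input and output libraries after one triplicate round of in vitro selection, which included frozen incubation at −7 °C, of PCR-built, transcribed mutant libraries of each subunit of a heterodimeric triplet polymerase ribozyme. Only genotypes with ≥10 input reads and ≥1 read per output were kept.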

Variant	polymerase ribozyme fitness (log ratio)
G44C C97G U112A	-4.06
G44C U81C U106A	-0.434
G44U C114U U132A	-2.69
G44C C85U G117A C124A U125C	-1.55
G44U G61C	-2.36
G44U G61U	-0.394
G44U G61A	-1.47
G44U G69U G117C A121C	-4.54
G44U G63U C115G	-3.72
G44U C53G G71U C73A C82U U129G	-3.9
G44C C72U A100C	-2.51
G44C G69U A75G C79U U87A C97U G135U	-5.55
G44U C53U	-1.59
G44U G117A	-2.13
G44U G45A G122A	-3.13
G44U A66U	-2.13
G44U C53A C56A A111C	-0.781
G44U C72G U78G C82G	-2.66
G44C A74C A111C	-0.547
G44C C88G G117A C123G	-2.7
G44C C73U C86U U96G U129C	-2.46
G44U C82A C97A A121U	-3.17
G44C G45A G61U U78G	-4.37
G44C A91C G120A	-0.836

Variant	polymerase ribozyme fitness (log ratio)
G44U G47A C56A C124U G127C U131A G135C	-3.28
G44U G60C U87G	-2.16
G44U U87C U106C	-1.29
G44C U78C C115G C123U	-4.64
G44C C73U U112G G120U G127C	-5.16
G44U G48U C114A	-2.93
G44C C102A G120U	-4.59
G44U A46U G71U C114G U132A	-4.18
G44U U55A A68U G69U C86G G120U	-7.36
G44C G63A C86A	-3.09
G44C U81A C89U G110U	-4.45
G44U A46C G52U G61U C124A	-3.53
G44C C49U	-2.11
G44C U92G	-2.61
G44U G57U C89U C104U	-1.47
G44U G48A C76U C85A C88A	-2.99
G44U G52U U55A U132A	-2.55
G44C U106C	-0.754
G44A U109G	-5.09
G44U U54C G113C	-3.08
G44U C98A G120U	-6.27
G44C A46U G58A G63U G117A U130G	-6.42
G44C G47U U81A	-4.12
G44A U92G	-3.27

Variant	polymerase ribozyme fitness (log ratio)
G44U G47C C53U C72G	-4.81
G44C A121C	0.904
G44C U106G G110A A119G	-4.41
G44C C62A U132C	-2.12
G44C U55A A103U U130A	-5.8
G44U A46C A95G	-3.59
G44U G63C	-1.66
G44U G63A	-1.62
G44U G47U C49G	-5.36
G44U U112C	0.722
G44U U112G	-1.6
G44C C56U	-0.735
G44U C62G C79U A90G	-1.45
G44U A90U G135U	-2.19
G44U A46U C89A	-0.411
G44C C80A G110U C124A	-6.53
G44U C62G G117A	-4.71
G44U G58C G113A	-1.31
G44U G63C C79U U112A	0.269
G44U A91U	-2.13
G44C U112G	-1.07
G44A U130C	-0.447
G44C U106C G135C	-1.28
G44U C49A	-2.67

Variant	polymerase ribozyme fitness (log ratio)
G44C G45U	-2.11
G44U C53A C56A U67C A111C	-6.43
G44C U116C C124A	-0.551
G44U A84G G120C U130G	-2.91
G44U A46U	-1.83
G44C G69A A91G A103C C115U	-5.28
G44U G47U	-2.16
G44U G48U	-2.5
G44U C62A A84U A118G	-4.34
G44U C64U	-1.48
G44C G47U G48A	-1.43
G44U G61U G110U	-1.97
G44C U116G C124G	-3.04
G44C A83G A111C	-2.73
G44U U55G G61C A119U	-1.87
G44U C89U A111U	-4.49
G44U A90U	-2.78
G44A U78G	-1.09
G44U C114U	-2.25
G44U C124G	-0.383
G44U G61A C98A G117U	-7.12
G44A U112A	0.126
G44U C49A A50C G71A	-5.27
G44U G71A	-2.39

Variant	polymerase ribozyme fitness (log ratio)
G44C C72U A75C U92G	-2.94
G44U G120U U131A	-1.89
G44C U87A	-1.07
G44C C115G	-2.64
G44U G47U C72A U81G G117C	-6.49
G44U A83C	-1.34
G44U C64U C102A	-2.68
G44U G57A C94G	-3.86
G44C C70G A119U	-5.47
G44U C64G C101G A121U	-6.22
G44U G110A	-2.64
G44C G71U	-2.2
G44U C72A	-1.04
G44U U129A U131A	-3.84
G44U U92C	-1.82
G44C G58A A91G U92C	-3.08
G44C C64U	-0.652
G44U G45C	-2.69
G44U C72U C76A C88U U109A	-5.19
G44C	-0.805
G44U	-1.16
G44C A111G	-0.351
G44C A46U G58A G117A U130G	-3.81
G44U C56A G127C	-2.27

Variant	polymerase ribozyme fitness (log ratio)
G44U G60A U129C	-1.49
G44C G60A	-1.01
G44U C72A G127C U131C	-3.12
G44C G120C	-0.584
G44U U109A	-5.43
G44C G58C A121G	1.21
G45A	-0.788
G44C C64U A111G	-0.526
G44C A95G A118G	-1.3
G44U C53G G60A A121C	0.687
G44U G45C C62U	-3.45
G44U U55A A83U	-1.34
G44U A68G U92A A119U C124U	-6.31
G44U C72G U92A C115G	-5.53
G44C C53A C72U C88U A100U	-0.423
G44C C56G G69U	-2.28
G44U C72G C85U U96A A121G C124G	-3.64
G44U G60C	-0.794
G44U C72G C85A	-2.52
G44C C53U G61U C124U	0.752
G44C C72G C88U C101U	-2.47
G44U G47U C49U C72A A74G U96G U132A	-5.92
G44U U106G A119G	-1.15
G44U C49A C56U G117A	-2.64

Variant	polymerase ribozyme fitness (log ratio)
G44U G69C A121G	0.0622
G44U G48A C114A	-2.35
G44U C70A U116C	-4.01
G44C G58C U59C U96A	-1.98
G44U U131A	-1.33
G44U U133G	-1.78
G44A U129A	-1.83
G44U C88A U133G	-1.73
G44C G63A C85U G110C	-7.22
G44U C89A	0.219
G44C U92G U106A U116A	-6.02
G44C U92C C124A	0.556
G44U C56U	-0.616
G44C G47A G61U U133A	-1.13
G44U A50U G60C C101A C115A	-4.05
G44U C73A C102A	-2.29
G44C C88A U109A	-5.8
G44C C94G A121G	0.2
G44U G45U G60C C72U C101U A121G U131C	-0.75
G44C G69A	-4.37
G44A U81G U87G A90G	-4.02
G44C G77A	-0.814
G44C G47A C73G	-2.76
